“Also recorded” adds a separate entry of the source.
Assays:
Bcl-2 promoter = Bcl-2 promoter reporter assay in CHO cells; format: cell-based, Chinese hamster
Text: The entire CGI-147 open reading frame encodes a 27-kDa protein with no sequence similarity to other proteins. […] To denote this inhibitory transcriptional activity, the Clone-3 gene was denoted Bit1 for Bcl-2 inhibitor of transcription.

[1] = system: Heat Shock 70 kD protein 1A; experiment: Northern blot of ecdysone-induced Bit1 or AES cell lines; format: cell-based, human; conditions: ecdysone-inducible ECR-293 cell line expressing Bit1 or AES
Method: (§1) To determine whether the Bit1/AES pathway can regulate the transcription of genes other than Bcl-2, two stable cell lines were established expressing either-Bit1 or AES under control of an ecdysone-inducible promoter. To detect genes regulated by Bit1 or AES, probes were prepared from the ecdysone-induced cell lines and used to screen microarrays representing 19,000 human cDNAs. […] Down-regulation of HSP-70 and thymosin 4 in cells induced to express Bit1 or AES was confirmed by Northern blot analysis (see FIG. 7).
(§2) Northern blot analysis was performed as follows. Total RNA (10 μg) was electrophoresed on a 1% agarose-formaldehyde gel and transferred to nitrocellulose filters. The filters were hybridized using the same RNA probes as in the microarray experiments in Rapid-hyb buffer and washed according to the manufacturer's instructions (Amersham-Pharmacia).

Thymosin β-4 = experiment: as above; format: cell-based, human; conditions: ecdysone-inducible ECR-293 cell line expressing Bit1 or AES
Method: as §1, §2

19,000 human cDNAs = experiment: cDNA microarray analysis of ecdysone-induced Bit1 or AES cell lines; format: cell-based
Method: as §1
cDNA microarray analysis was performed as follows. Total RNA was purified 48 hours after treatment with 10 μM ponasterone A (Invitrogen; San Diego, Calif.) from the ecdysone inducible cell line ECR-293-Bit1 or ECR-293-AES according to the manufacturer's instructions (Qiagen; Valencia, Calif.). cDNA probes were generated and hybridized with a microarray containing 19,000 human cDNAs from Microarray Centre at University Health Network, Ontario Cancer institute. cDNAs were labeled with fluorescent dyes (Cy3 or Cy5) using reverse transcription. Arrays were processed and hybridized essentially as described in Iyer et al., Science 283:83-87 (1999). After hybridization, arrays were scanned to measure fluorescence using a ScanArray 4000 scanner (Perkin Elmer; Meriden, Conn.). Raw data files generated by scanner software were imported into ImaGene and Gene Spring for analysis. Experiments were performed in duplicate using color reversals.

HEK 293T cells = experiment: Anoikis of attached or detached (poly-HEMA) transfected cells; format: cell-based, human
Method: The role of Bit1 in the tendency of detached cells to undergo apoptosis (anoikis in the strictest sense) was then examined. HEK 293T cells were transfected with C-terminally myc-tagged (mitochondrial) Bit1 or with empty vector, and the cells were cultured either on tissue-culture plates (attached) or on poly-HEMA (detached) for 48 hours. The number of attached cells (10^6) was the same whether the cells were transfected with Bit1 or vector (assigned as 100% in FIG. 8H).
As is shown in FIG. 8H, Bit1 and control transfected cells had the same level of spontaneous apoptosis when grown attached to a culture dish. In striking contrast, detachment induced a higher level of cell death in the Bit1-transfected cells than in the control cells. Given that the transfection efficiency was about 50-70% in the 293T cells, the nearly 4-fold higher apoptosis level of the Bit1-transfected cells translates into more than 5-fold difference in anoikis sensitivity.

AES [2] = molecular target: T1, AES (Homo sapiens, UniProt Q08117); experiment: Yeast two-hybrid analysis; format: binding; conditions: yeast co-transformed with vectors encoding both Bit1 and AES
T1 construct: expressed in transfected cells; host or cells: yeast strain AH109
T1 sequence (Q08117 1-197): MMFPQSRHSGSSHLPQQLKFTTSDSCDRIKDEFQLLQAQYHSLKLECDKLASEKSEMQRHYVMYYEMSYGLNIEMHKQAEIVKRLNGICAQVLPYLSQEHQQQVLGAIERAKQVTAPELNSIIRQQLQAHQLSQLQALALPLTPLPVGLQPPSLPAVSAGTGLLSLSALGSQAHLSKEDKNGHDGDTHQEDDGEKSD
Method: To explore the mechanism whereby Bit1 induces cell death, a yeast-two-hybrid screening assay was performed to search for binding partners for the Bit1 protein. Full-length Bit1 cDNA was fused to the Gal4 DNA-binding domain in the pGBKT7 vector and used as bait; a human fetal brain cDNA expression library fused to the Gal4 transcriptional activation domain was screened in cells expressing the Bit1/GAL4 DNA-binding domain fusion. Approximately one million transformants from the cDNA library were screened, and about 100 clones positive for both nutritional selection and α-galactosidase activity were obtained.
The ability of AES to interact with Bit1 was confirmed in mammalian cells.
Yeast two-hybrid screening was performed as follows. Full length CGI-147 was cloned in-frame with the Gal4 DNA binding domain in vector pGBKT7 and used to screen a yeast two-hybrid library derived from human fetal brain (Clontech). Yeast strain AH109 was co-transformed with PGBKT7-Bit1, pACT-2-AES or both, and growth selected in SD medium -ADE/-His/-Leu/-Trp and assayed for α-galactosidase activity according to the manufacturer's instructions (Clontech).

AES [3] = molecular target: T1, AES; experiment: Co-immunoprecipitation of exogenously expressed tagged Bit1 and AES; format: binding; conditions: immunoprecipitated with anti-flag, immunoblotted with anti-myc
Method: Tagged Bit1 and AES were transfected into cells, and cell extracts were immunoprecipitated with anti-flag and immunoblotted with anti-myc. Equal loading of the samples was confirmed by immunoblotting of the whole extract with anti-flag.
Immunoprecipitation and immunoblotting were performed essentially as follows. Cells were transfected with full-length clones for Bit1 and AES, which were obtained by PCR from EST clones using Pfu enzyme (Stratagene; La Jolla, Calif.) and cloned into pCMV-Myc (Clontech) or pCMV-flag (Sigma; St. Louis, Mo.). After 24 to 48 hours, cells were harvested in ice-cold NP-40 lysis buffer (1% NP-40; 20 mM Tris-HCl, pH 7.4; 150 mM NaCl; 10% glycerol, 2 mM sodium vanadate; 1 mM phenylmethyl sulfonylfluoride; 10 μg/ml leupeptin; and 5 μg/ml aprotinin) and lysed at 4° C. for 15 minutes. Lysates were incubated for two hours with the indicated antibodies, and the antibody complexes precipitated with 20 μl of Gammabind (Amersham-Pharmacia; Piscataway, N.J.) for an additional hour. After washing the beads, bound proteins were solubilized in SDS-PAGE sample buffer. Western blot analysis was performed according to standard procedures.

B1: Bit1: human Bit1 polypeptide of 179 residues (SEQ ID NO:2), pro-apoptotic, expressed in cells by transfection (protein, listed as Homo sapiens)
chain: MPSKSLVMEYLAHPSTLGLAVGVACGMCLGWSLRVCFGMLPKSKTSKTHTDTESEASILGDSGEYKMILVVRNDLKMGKGKVAAQCSHAAVSAYKQIQRRNPEMLKQWEYCGQPKVVVKAPDEETLIALLAHAKMLGLTVSLIQDAGRTQIAPGSQTVLGIGPGPADLIDKVTGHLKLY
Bcl-2 promoter activity (Bcl-2 promoter; CHO cells, 1 μg Bcl-2-luciferase reporter construct, 24 hours in culture): down-regulate
expression of the Bcl-2 promoter construct (Bcl-2 promoter; transfected into CHO cells): down-regulated
Northern result, suppression of Heat Shock 70 kD protein 1A [1]: 3 fold
Northern result, suppression of Thymosin β-4 (Thymosin β-4): 5 fold
Bcl-2 expression (19,000 human cDNAs; Bit1 and AES stable cell lines): not measurably altered
Microarray result: gene induced (19,000 human cDNAs; at least a two-fold induction, value is the gene): Atrophin-1 interacting protein 1; also recorded: Mannosyl (β-1,4)-glycoprotein; also recorded: insulin-like growth factor-binding; also recorded: Tissue factor pathway inhibitor 2
Microarray result: gene suppressed (19,000 human cDNAs; at least a two-fold suppression, value is the gene): Heat Shock 70 kD protein 1A; also recorded: Thymosin β-4; also recorded: Actin-binding LIM protein; also recorded: sialytransferase
reduction of the number of surviving cells in detached cultures (HEK 293T cells; C-terminally myc-tagged Bit1, poly-HEMA, 48 hours, 8% in the vector transfection): 30%
apoptosis level of Bit1-transfected cells versus control cells, detached (HEK 293T cells; HEK 293T cells, detached): ~4 fold
difference in anoikis sensitivity (HEK 293T cells; corrected for transfection efficiency of about 50-70%): more than 5 fold
interaction with AES, growth of co-transformed yeast (AES [2]): yeast grew
co-immunoprecipitation with AES (AES [3]): confirmed interaction

From patent US8017326B2, “Methods of modulating cell death based on the Bit-1/AES regulatory pathway” (Sanford-Burnham Medical Research Institute, priority 2002, dated 2011)
